Results from patent publication US12247072 (ASHER BIOTHERAPEUTICS, dated 2025).
Changes are numbered by the printed parent chain. Numbers in names are those of the source. One block for each binder: values may come before it.

Experiments:
[1] = biological target: T1, Recombinant human IL-21R, extracellular domain fused to 8x Histidine tag (generated in house) (human, UniProt Q9HBE5 20-232); test: SPR, 37 C
[2] = biological target: T2, Human IL-21R (Biolegend, Catalog No. 773104) (human, UniProt Q9HBE5 20-232, limits assumed); test: SPR, 37 C;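 as to Kd: fc fusion proteins captured on an anti-human IgG Fc Biacore surface, 10 min dissociation, double-referenced data fitted to a 1:1 Langmuir model with mass transport, triplicate runs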;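 as to koff: fc fusion proteins captured on an anti-human IgG Fc Biacore surface, 10 min dissociation, double-referenced data fitted to a 1:1 Langmuir model with mass transport, triplicate runs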;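 as to kon: fc fusion proteins captured on an anti-human IgG Fc Biacore surface, 10 min dissociation, double-referenced data fitted to a 1:1 Langmuir model with mass transport, triplicate runs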
T2 construct: Bought; also called human IL-21 receptor

[3] = biological target: T2, Human IL-21R (Biolegend, Catalog No. …); test: SPR, 37 C; remark: listed apart in the source
[4] = biological target: T3, mouse CD8b (mouse, UniProt P10300 22-175, limits assumed); test: not described
T3 sequence (looked up): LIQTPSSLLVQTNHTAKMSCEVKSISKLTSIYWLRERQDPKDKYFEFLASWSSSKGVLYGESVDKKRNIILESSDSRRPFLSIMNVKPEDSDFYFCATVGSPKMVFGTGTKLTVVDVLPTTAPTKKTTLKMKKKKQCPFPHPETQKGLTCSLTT

[5] = biological target: T4, mouse CD8 (mouse, UniProt P01731 28-247; P10300 22-213); test: not described
T4 construct: copies: 1 + 1

[6] = biological target: T1, Recombinant human IL-21R, extracellular …; test: SPR, 25 C

T1 sequence (Q9HBE5 other isoform, or with tags, fused parts or gaps limits assumed): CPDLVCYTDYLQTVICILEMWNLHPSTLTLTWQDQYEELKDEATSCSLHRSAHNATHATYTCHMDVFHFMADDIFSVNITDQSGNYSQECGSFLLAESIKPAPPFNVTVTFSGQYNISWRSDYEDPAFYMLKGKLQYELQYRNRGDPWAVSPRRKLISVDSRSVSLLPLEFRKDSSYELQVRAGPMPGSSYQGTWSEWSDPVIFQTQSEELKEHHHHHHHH
T2 sequence (Q9HBE5 20-232 limits assumed): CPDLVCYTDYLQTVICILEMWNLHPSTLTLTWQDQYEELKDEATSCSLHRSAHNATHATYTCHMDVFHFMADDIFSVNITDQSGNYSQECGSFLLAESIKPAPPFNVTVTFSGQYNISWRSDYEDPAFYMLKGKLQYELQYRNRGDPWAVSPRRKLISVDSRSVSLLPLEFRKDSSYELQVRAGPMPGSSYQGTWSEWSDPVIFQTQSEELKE
T4 sequence (P01731 28-247 limits assumed, one chain of several): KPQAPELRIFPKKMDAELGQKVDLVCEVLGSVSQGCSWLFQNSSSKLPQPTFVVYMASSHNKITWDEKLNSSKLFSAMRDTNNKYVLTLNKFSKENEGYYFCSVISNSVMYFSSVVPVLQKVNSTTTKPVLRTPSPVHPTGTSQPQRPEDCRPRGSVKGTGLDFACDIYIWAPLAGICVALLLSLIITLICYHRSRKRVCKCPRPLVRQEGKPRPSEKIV

B1: xhCD8.1-hIL21 v2.7 (other)
VH: QVQLVQSGAEVKKPGSSVKVSCKASGGTFSSYAISWVRQAPGQGLEWMGGIIPGYATANYAQKFQGRVTITADESTSTAYMELSSLRSEDTAVYYCARDAAGIRLFADWGQGTLVTVSS
VL: DIQMTQSPSSLSASVGDRVTITCRASQSIYGALNWYQQKPGKAPKLLIYGASNLQSGVPSRFSGSGSGTDFTLTISSLQPEDFATYYCQSTYTAPWTFGGGTKVEIK
chain: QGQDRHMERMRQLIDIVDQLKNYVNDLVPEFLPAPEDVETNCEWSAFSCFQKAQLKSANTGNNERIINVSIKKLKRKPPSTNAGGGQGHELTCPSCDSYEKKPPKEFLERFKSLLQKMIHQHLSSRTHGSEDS
notes: Human IgG1/kappa, knob-into-hole, L234A/L235A/G237A
Kd [1]: 156 nM

B2: xhCD8.1-hIL21 v29 (other)
VH: B1 VH
VL: B1 VL
chain: QGQDRHMIRMRQLIDIVDQLKNYVNDLVPEFLPAPEDVETNCEWSAFSCFQKAQLKSANTGNNERIINVSIKKLKRKPPGGGGEGGGGGEGGCPSCDSYEKKPPKEFLERFKSLLQKMIHQHLSSRTHGSEDS
notes: as for B1
fold difference of IL-21R affinity against wild type IL-21 [2]: ≤ 2 fold
Kd [3]: 0.094 nM
koff [3]: 0.00119 s⁻¹
kon [3]: 1.27e+07 M⁻¹ s⁻¹

B4: xhCD8.1-hIL21 v2.30 (other)
VH: B1 VH
VL: B1 VL
chain: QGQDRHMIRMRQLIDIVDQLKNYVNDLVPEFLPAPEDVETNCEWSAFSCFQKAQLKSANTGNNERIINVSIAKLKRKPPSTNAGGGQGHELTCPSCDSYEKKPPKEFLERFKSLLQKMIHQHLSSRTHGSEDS
notes: as for B1
Kd [1]: 0.419 nM

B6: xhCD8.1-hIL21 v2.45 (other)
VH: B1 VH
VL: B1 VL
chain: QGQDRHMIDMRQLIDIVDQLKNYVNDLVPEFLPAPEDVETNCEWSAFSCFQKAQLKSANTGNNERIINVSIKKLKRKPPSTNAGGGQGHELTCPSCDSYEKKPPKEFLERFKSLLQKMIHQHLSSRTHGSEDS
notes: as for B1
binding result [1]: no binding (tested: highest concentration tested)

B7: xhCD8.1-hIL21 v2.42 (other)
VH: B1 VH
VL: B1 VL
chain: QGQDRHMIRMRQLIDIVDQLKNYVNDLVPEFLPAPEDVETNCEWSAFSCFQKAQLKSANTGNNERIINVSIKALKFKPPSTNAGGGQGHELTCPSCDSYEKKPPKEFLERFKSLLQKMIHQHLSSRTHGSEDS
notes: as for B1
binding result [1]: no binding (tested: highest concentration tested)

B8: xhCD8.1-hIL21 v2.28 (other)
VH: B1 VH
VL: B1 VL
chain: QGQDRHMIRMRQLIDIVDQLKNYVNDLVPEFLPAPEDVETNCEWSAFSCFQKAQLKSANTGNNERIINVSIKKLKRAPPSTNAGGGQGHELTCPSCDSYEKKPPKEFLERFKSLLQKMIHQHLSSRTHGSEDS
notes: as for B1
Kd [1]: 0.693 nM

B10: xhCD8.1-hIL21 v2.46 (other)
VH: B1 VH
VL: B1 VL
chain: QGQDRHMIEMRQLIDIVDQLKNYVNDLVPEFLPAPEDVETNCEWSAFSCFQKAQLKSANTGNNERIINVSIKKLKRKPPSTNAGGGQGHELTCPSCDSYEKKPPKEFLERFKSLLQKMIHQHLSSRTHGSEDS
notes: as for B1
binding result [1]: no binding (tested: highest concentration tested)

B13: xhCD8.1-hIL21 v2.20 (other)
VH: B1 VH
VL: B1 VL
chain: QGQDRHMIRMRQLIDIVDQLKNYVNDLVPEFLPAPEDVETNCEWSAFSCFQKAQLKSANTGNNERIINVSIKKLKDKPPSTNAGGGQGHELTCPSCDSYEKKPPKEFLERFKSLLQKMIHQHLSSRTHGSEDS
notes: as for B1
binding result [1]: no binding (tested: highest concentration tested)

B14: xhCD8.1-hIL21 v2.43 (other)
VH: B1 VH
VL: B1 VL
chain: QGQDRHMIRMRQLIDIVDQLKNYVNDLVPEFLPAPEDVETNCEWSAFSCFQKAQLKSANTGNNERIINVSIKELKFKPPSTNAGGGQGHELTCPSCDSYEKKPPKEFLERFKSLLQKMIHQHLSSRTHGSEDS
notes: as for B1
binding result [1]: no binding (tested: highest concentration tested)

B15: xhCD8.1-hIL21 v2.38 (other)
VH: B1 VH
VL: B1 VL
chain: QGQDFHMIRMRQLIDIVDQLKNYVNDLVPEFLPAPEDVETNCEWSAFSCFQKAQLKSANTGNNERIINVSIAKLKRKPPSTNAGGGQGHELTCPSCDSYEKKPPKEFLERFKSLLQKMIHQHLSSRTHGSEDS
notes: as for B1
Kd [1]: 66.9 nM

B17: xhCD8.1-hIL21 v28 (other)
VH: B1 VH
VL: B1 VL
chain: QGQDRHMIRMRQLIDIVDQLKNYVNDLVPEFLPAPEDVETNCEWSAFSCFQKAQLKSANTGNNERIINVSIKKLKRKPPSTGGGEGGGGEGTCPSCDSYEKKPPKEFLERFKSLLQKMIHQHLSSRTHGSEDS
notes: as for B1
fold difference of IL-21R affinity against wild type IL-21 [2]: ≤ 2 fold
Kd [3]: 0.106 nM
koff [3]: 0.00139 s⁻¹
kon [3]: 1.31e+07 M⁻¹ s⁻¹

B20: xhCD8.1-hIL21 v2.9 (other)
VH: B1 VH
VL: B1 VL
chain: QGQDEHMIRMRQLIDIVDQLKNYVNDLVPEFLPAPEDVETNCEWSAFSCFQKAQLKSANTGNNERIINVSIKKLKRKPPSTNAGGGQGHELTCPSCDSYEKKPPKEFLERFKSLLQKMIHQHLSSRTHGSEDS
notes: as for B1
Kd [1]: 420 nM

B21: xhCD8.1-hIL21 v2.29 (other)
VH: B1 VH
VL: B1 VL
chain: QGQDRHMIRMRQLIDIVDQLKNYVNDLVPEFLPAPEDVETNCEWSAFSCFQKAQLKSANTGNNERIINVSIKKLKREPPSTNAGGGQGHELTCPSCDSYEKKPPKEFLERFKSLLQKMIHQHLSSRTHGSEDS
notes: as for B1
Kd [1]: 2.8 nM

B22: xhCD8.1-hIL21 v2.33 (other)
VH: B1 VH
VL: B1 VL
chain: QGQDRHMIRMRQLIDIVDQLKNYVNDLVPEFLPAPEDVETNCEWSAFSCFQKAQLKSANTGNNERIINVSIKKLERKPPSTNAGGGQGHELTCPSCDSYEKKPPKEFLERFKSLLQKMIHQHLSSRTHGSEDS
notes: as for B1
Kd [1]: 1.3 nM

B24: xhCD8.1-hIL21 v2.39 (other)
VH: B1 VH
VL: B1 VL
chain: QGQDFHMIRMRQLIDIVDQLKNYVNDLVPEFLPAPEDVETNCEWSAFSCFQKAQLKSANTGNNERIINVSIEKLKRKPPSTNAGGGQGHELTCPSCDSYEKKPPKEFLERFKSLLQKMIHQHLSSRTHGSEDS
notes: as for B1
Kd [1]: 614 nM

B25: xhCD8.1-hIL21 v2.32 (other)
VH: B1 VH
VL: B1 VL
chain: not shown
notes: as for B1
Kd [1]: 0.236 nM

B26: xhCD8.1-hIL21 v2.58 (other)
VH: B1 VH
VL: B1 VL
chain: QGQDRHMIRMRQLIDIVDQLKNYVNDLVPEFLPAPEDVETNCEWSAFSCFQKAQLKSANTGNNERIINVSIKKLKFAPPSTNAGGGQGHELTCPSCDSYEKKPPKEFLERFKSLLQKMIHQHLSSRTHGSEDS
notes: as for B1
Kd [1]: 420 nM

B29: hIL21 v31.51, non-fusion, 8His-tagged (ligand)
chain: QGQDRHMIGMRQLIDIVDQLKNYVNDLVPEFLPAPEDVETNCEWSAFSCFQKAQLKSANTGNNERIINVSIKKLKRKPPGGEGGGGGGGEGGCPSCDSYEKKPPKEFLERFKSLLQKMIHQHLSSRTHGSEDSGGASHHHHHHHH
Kd [6]: 7730 nM

B30: xhCD8v11 (antibody, V domains shown)
VH: EVQLVESGGGLVQPGGSLRLSCAASGFTFSSYAMSWVRQAPGKGLEWVSDITYAGGSTAYADSVKGRFTISRDNAKNSLYLQMNSLRAEDTAVYYCARSNAYAWDDALDIWGQGTLVTVSS
VL: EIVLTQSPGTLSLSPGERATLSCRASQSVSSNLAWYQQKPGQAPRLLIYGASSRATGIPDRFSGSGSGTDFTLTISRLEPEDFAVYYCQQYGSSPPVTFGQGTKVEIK
notes: Anti-human CD8 antibody; human IgG1/kappa
binding result [5]: no binding

B31: xhCD8-hIL21 v2 (other)
VH: QVHLQQSGPELVKPGASVKMSCKTSGYTFTKYTMHWVKQGHEESLEWIGHFNPNNDETKYNQKFTGKATLTVDKSSTTAYMELRSLTSDDSALYYCARDGLGLRLFADWGQGTLITVSA
VL: DIQMTQSPASLSASVGETVTITCGASENIYGALNWYQRKQGKSPQLLIFGATNLADGVSSRFSGSGSDRQYSLKISSLHPDDVATYYCQNILDTPWTFGGGTKLEIK
chain: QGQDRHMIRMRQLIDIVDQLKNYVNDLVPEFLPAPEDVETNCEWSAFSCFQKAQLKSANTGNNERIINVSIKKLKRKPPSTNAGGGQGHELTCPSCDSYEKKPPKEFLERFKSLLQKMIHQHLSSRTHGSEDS
notes: Human IgG1/kappa, knob-into-hole, L234A/L235A/G237A; also called xhCD8-Fc-hIL21 v2; exemplary IL-21 polypeptide 2
fold difference of IL-21R affinity against wild type IL-21 [2]: ≤ 2 fold
Kd [3]: 0.122 nM
koff [3]: 0.0011 s⁻¹
kon [3]: 8.9e+06 M⁻¹ s⁻¹

B32: xhCD8-hIL21 v1 (other)
VH: B31 VH
VL: B31 VL
chain: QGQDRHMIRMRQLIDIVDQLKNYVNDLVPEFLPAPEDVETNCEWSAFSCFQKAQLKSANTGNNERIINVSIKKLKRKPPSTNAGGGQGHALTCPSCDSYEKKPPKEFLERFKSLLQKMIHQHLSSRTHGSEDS
notes: Human IgG1/kappa, knob-into-hole, L234A/L235A/G237A; also called exemplary IL-21 polypeptide 1
fold difference of IL-21R affinity against wild type IL-21 [2]: ≤ 2 fold
Kd [3]: 0.117 nM
koff [3]: 0.00097 s⁻¹
kon [3]: 8.3e+06 M⁻¹ s⁻¹

Results, then the binder that gave them:

binding result [4]: no binding
binding result [5]: no binding
B3: xhCD8.1 (antibody, V domains shown)
VH: B1 VH
VL: B1 VL
notes: Anti-human CD8 antibody; human IgG1/kappa; also called xhCD8v12; xCtrl (in mouse studies)

fold difference of IL-21R affinity against wild type IL-21 [2]: ≤ 2 fold
Kd [3]: 0.093 nM
koff [3]: 0.00107 s⁻¹
kon [3]: 1.16e+07 M⁻¹ s⁻¹
B5: xhCD8.1-hIL21 v30 (other)
VH: B1 VH
VL: B1 VL
chain: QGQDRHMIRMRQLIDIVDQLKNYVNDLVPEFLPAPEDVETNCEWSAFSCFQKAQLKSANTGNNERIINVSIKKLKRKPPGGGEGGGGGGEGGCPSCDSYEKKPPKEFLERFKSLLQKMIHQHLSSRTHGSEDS
notes: as for B1

Kd [1]: 125 nM
B9: xhCD8.1-hIL21 v2.36 (other)
VH: B1 VH
VL: B1 VL
chain: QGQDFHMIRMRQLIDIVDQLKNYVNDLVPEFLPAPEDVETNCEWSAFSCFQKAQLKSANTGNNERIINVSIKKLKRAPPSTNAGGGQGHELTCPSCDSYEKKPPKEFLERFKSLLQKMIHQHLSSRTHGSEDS
notes: as for B1

fold difference of IL-21R affinity against wild type IL-21 [2]: ≤ 2 fold
Kd [3]: 0.094 nM
koff [3]: 0.00113 s⁻¹
kon [3]: 1.2e+07 M⁻¹ s⁻¹
B11: xhCD8.1-hIL21 v31 (other)
VH: B1 VH
VL: B1 VL
chain: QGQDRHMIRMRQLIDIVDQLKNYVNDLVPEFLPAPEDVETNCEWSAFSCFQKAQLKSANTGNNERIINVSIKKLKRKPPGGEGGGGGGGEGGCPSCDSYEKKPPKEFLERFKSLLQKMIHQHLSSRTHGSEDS
notes: as for B1

Kd [1]: 3.4 nM
B12: xhCD8.1-hIL21 v2.31 (other)
VH: B1 VH
VL: B1 VL
chain: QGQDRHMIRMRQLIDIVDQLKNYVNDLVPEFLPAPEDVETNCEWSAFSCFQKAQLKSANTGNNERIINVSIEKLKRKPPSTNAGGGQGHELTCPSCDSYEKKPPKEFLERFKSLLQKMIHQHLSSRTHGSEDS
notes: as for B1

fold difference of IL-21R affinity against wild type IL-21 [2]: ≤ 2 fold
Kd [3]: 0.106 nM
koff [3]: 0.00139 s⁻¹
kon [3]: 1.31e+07 M⁻¹ s⁻¹
B16: xhCD8.1-hIL21 v27 (other)
VH: B1 VH
VL: B1 VL
chain: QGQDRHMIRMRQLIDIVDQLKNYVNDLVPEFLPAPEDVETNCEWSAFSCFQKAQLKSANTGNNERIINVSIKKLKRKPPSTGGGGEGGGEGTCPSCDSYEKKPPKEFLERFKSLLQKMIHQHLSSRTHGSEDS
notes: as for B1

Kd [1]: 2 nM
B18: xhCD8.1-hIL21 v2.34 (other)
VH: B1 VH
VL: B1 VL
chain: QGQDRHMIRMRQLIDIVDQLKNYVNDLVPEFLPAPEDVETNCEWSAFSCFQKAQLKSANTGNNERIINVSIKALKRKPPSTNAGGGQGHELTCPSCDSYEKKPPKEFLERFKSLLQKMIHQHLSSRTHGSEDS
notes: as for B1

Kd [1]: 54.7 nM
B19: xhCD8.1-hIL21 v2.40 (other)
VH: B1 VH
VL: B1 VL
chain: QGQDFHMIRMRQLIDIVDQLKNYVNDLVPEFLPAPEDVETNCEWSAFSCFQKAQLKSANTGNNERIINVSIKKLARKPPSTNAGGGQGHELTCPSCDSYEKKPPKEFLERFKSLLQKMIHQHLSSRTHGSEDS
notes: as for B1

Kd [1]: 601 nM
B23: xhCD8.1-hIL21 v2.37 (other)
VH: B1 VH
VL: B1 VL
chain: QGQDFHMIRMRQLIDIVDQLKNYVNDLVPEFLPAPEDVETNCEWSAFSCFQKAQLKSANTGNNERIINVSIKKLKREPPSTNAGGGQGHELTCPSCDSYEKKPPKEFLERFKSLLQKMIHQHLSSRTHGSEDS
notes: as for B1

Kd [1]: 104 nM
B27: xhCD8.1-hIL21 v2.41 (other)
VH: B1 VH
VL: B1 VL
chain: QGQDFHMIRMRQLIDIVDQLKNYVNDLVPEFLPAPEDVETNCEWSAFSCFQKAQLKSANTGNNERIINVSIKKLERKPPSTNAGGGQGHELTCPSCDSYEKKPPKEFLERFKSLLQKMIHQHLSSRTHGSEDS
notes: as for B1

Kd [6]: 6060 nM
B28: hIL21 v31.23, non-fusion, 8His-tagged (ligand)
chain: B29 chain with G9R, R76Q

fold difference of IL-21R affinity against wild type IL-21 [2]: ~3 fold
Kd [3]: 0.478 nM
koff [3]: 0.0025 s⁻¹
kon [3]: 5.2e+06 M⁻¹ s⁻¹
B33: xhCD8-hIL21 v6 (other)
VH: B31 VH
VL: B31 VL
chain: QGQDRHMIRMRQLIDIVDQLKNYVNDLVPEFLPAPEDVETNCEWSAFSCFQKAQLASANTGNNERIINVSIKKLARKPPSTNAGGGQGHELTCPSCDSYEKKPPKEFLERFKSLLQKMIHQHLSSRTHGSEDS
notes: Human IgG1/kappa, knob-into-hole, L234A/L235A/G237A; also called exemplary IL-21 polypeptide 6
